B1: peptide HD2 (from tick evasin EVA4) / CCL8 (biotinylated, synthetic) (parent complex)
chain 1: EEDDYTAYAPLTCYFT
chain 2: QPDSVSIPITCCFNVINRKIPIQRLESYTRITNIQCPKEAVIFKTKRGKEVCADPKERWVRDSMKHLDQIFQNLKP

The variants in this assay derive from B1.
Regarding chain 1 Y5G, the enrichment is -5.04 log2 (difference from the parental peptide).

Regarding chain 1 Y5D, the enrichment is -3.76 log2 (difference from the parental peptide).

As for chain 1 Y5H, the enrichment was -5.84 log2 (difference from the parental peptide).

Consider chain 1 Y5N, for which the enrichment is -4.9 log2 (difference from the parental peptide).

On to chain 1 Y5P, for which the enrichment is -6.25 log2 (difference from the parental peptide).

As to chain 1 Y5A, the enrichment was -6.59 log2 (difference from the parental peptide).

As to chain 1 T6C, the enrichment is -9.06 log2 (difference from the parental peptide).

In the case of chain 1 T6A, the enrichment is 1.59 log2 (difference from the parental peptide).

For the variant chain 1 T6P, the enrichment was -1.36 log2 (difference from the parental peptide).

In the case of chain 1 T6V, the enrichment was -3.12 log2 (difference from the parental peptide).

Take chain 1 T6S: the enrichment is 2.06 log2 (difference from the parental peptide).

chain 1 T6M: the enrichment is -0.0579 log2 (difference from the parental peptide).

In the case of chain 1 T6F, the enrichment is -4.21 log2 (difference from the parental peptide).

For the variant chain 1 T6G, the enrichment is 2.04 log2 (difference from the parental peptide).

As to chain 1 T6W, the enrichment is -0.802 log2 (difference from the parental peptide).

For chain 1 T6Y, the enrichment is -0.847 log2 (difference from the parental peptide).

For the variant chain 1 T6L, the enrichment was -2.32 log2 (difference from the parental peptide).

As to chain 1 F15V, the enrichment is 2.21 log2 (difference from the parental peptide).

As for chain 1 F15N, the enrichment is 1.4 log2 (difference from the parental peptide).

Consider chain 1 F15S, for which the enrichment is 1.91 log2 (difference from the parental peptide).

As for chain 1 F15Q, the enrichment was 2.57 log2 (difference from the parental peptide).

In the case of chain 1 F15Y, the enrichment is 1.8 log2 (difference from the parental peptide).

Consider chain 1 F15C, for which the enrichment is 0.0192 log2 (difference from the parental peptide).

With chain 1 F15H, the enrichment is 2.19 log2 (difference from the parental peptide).

Consider chain 1 F15L, for which the enrichment is 1.43 log2 (difference from the parental peptide).

As to chain 1 F15D, the enrichment is 0.871 log2 (difference from the parental peptide).

chain 1 F15G: the enrichment was 0.793 log2 (difference from the parental peptide).

Consider chain 1 L11G, for which the enrichment is -1.12 log2 (difference from the parental peptide).

Take chain 1 L11S: the enrichment is 1.65 log2 (difference from the parental peptide).

For chain 1 L11M, the enrichment was 2.26 log2 (difference from the parental peptide).

On to chain 1 L11R, for which the enrichment was 1.57 log2 (difference from the parental peptide).

Consider chain 1 L11A, for which the enrichment is 0.754 log2 (difference from the parental peptide).

Consider chain 1 L11D, for which the enrichment is -2.06 log2 (difference from the parental peptide).

Turning to chain 1 Y8V, the enrichment is -4.32 log2 (difference from the parental peptide).

Take chain 1 Y8S: the enrichment was -4.18 log2 (difference from the parental peptide).

Regarding chain 1 Y8C, the enrichment was -9.2 log2 (difference from the parental peptide).

On to chain 1 Y8I, for which the enrichment was -8.9 log2 (difference from the parental peptide).

In the case of chain 1 Y8F, the enrichment was 1.24 log2 (difference from the parental peptide).

In the case of chain 1 Y8W, the enrichment is 0.61 log2 (difference from the parental peptide).

On to chain 1 Y8H, for which the enrichment is -4.28 log2 (difference from the parental peptide).

With chain 1 Y8N, the enrichment is -4.48 log2 (difference from the parental peptide).

For the variant chain 1 Y8A, the enrichment was -1.36 log2 (difference from the parental peptide).

As for chain 1 T16F, the enrichment is 0.115 log2 (difference from the parental peptide).

In the case of chain 1 T16R, the enrichment was 0.603 log2 (difference from the parental peptide).

chain 1 T16L: the enrichment was 0.738 log2 (difference from the parental peptide).

As to chain 1 T16G, the enrichment is 1.07 log2 (difference from the parental peptide).

With chain 1 T16W, the enrichment is -0.46 log2 (difference from the parental peptide).

chain 1 T16Q: the enrichment was 1.96 log2 (difference from the parental peptide).

In the case of chain 1 T16Y, the enrichment is -0.142 log2 (difference from the parental peptide).

With chain 1 T16M, the enrichment is 0.502 log2 (difference from the parental peptide).

chain 1 T16S: the enrichment was 1.37 log2 (difference from the parental peptide).

Turning to chain 1 T16V, the enrichment is 0.537 log2 (difference from the parental peptide).

Turning to chain 1 T16N, the enrichment was 0.543 log2 (difference from the parental peptide).

For the variant chain 1 T16E, the enrichment was 1.25 log2 (difference from the parental peptide).

For chain 1 Y14G, the enrichment is -2.18 log2 (difference from the parental peptide).

In the case of chain 1 Y14K, the enrichment is -1.21 log2 (difference from the parental peptide).

Take chain 1 Y14L: the enrichment is 0.559 log2 (difference from the parental peptide).

With chain 1 Y14S, the enrichment was -0.238 log2 (difference from the parental peptide).

With chain 1 Y14F, the enrichment is 0.904 log2 (difference from the parental peptide).

With chain 1 Y14T, the enrichment is 1.09 log2 (difference from the parental peptide).

Regarding chain 1 Y14D, the enrichment is -0.707 log2 (difference from the parental peptide).

Turning to chain 1 Y14H, the enrichment was 1.41 log2 (difference from the parental peptide).

As to chain 1 Y14Q, the enrichment was 0.652 log2 (difference from the parental peptide).

As to chain 1 T12M, the enrichment was -0.433 log2 (difference from the parental peptide).

Turning to chain 1 T12P, the enrichment was -0.165 log2 (difference from the parental peptide).

On to chain 1 T12I, for which the enrichment was -0.26 log2 (difference from the parental peptide).

On to chain 1 T12E, for which the enrichment was -0.507 log2 (difference from the parental peptide).

On to chain 1 T12G, for which the enrichment was -3.67 log2 (difference from the parental peptide).

Regarding chain 1 T12L, the enrichment was 0.285 log2 (difference from the parental peptide).

On to chain 1 T12F, for which the enrichment is -1.18 log2 (difference from the parental peptide).

On to chain 1 T12Q, for which the enrichment is 0.904 log2 (difference from the parental peptide).

For the variant chain 1 T12Y, the enrichment is -0.212 log2 (difference from the parental peptide).

Take chain 1 A9L: the enrichment was -3.92 log2 (difference from the parental peptide).

In the case of chain 1 A9H, the enrichment was -2.52 log2 (difference from the parental peptide).

As for chain 1 A9I, the enrichment was -5.81 log2 (difference from the parental peptide).

With chain 1 A9W, the enrichment was -5.37 log2 (difference from the parental peptide).

For chain 1 A9C, the enrichment was -9.61 log2 (difference from the parental peptide).

Regarding chain 1 A9F, the enrichment is -4.42 log2 (difference from the parental peptide).

Take chain 1 A9D: the enrichment was -7.75 log2 (difference from the parental peptide).

For chain 1 A9E, the enrichment was 1.36 log2 (difference from the parental peptide).

For the variant chain 1 A9Q, the enrichment is 0.272 log2 (difference from the parental peptide).

chain 1 D4C: the enrichment was -7.17 log2 (difference from the parental peptide).

Turning to chain 1 D4H, the enrichment was -4.48 log2 (difference from the parental peptide).

On to chain 1 D4V, for which the enrichment was -3.88 log2 (difference from the parental peptide).

As for chain 1 D4F, the enrichment was -4.31 log2 (difference from the parental peptide).

Take chain 1 D4A: the enrichment is -3.07 log2 (difference from the parental peptide).

chain 1 D4L: the enrichment is -3.87 log2 (difference from the parental peptide).

For the variant chain 1 D4M, the enrichment was -3.9 log2 (difference from the parental peptide).

On to chain 1 D4E, for which the enrichment was -0.292 log2 (difference from the parental peptide).

As for chain 1 D4T, the enrichment was -2.87 log2 (difference from the parental peptide).

For chain 1 D4K, the enrichment was -6.39 log2 (difference from the parental peptide).

In the case of chain 1 E2A, the enrichment is -1.44 log2 (difference from the parental peptide).

With chain 1 E2D, the enrichment was 1.04 log2 (difference from the parental peptide).

With chain 1 E2M, the enrichment was -2.24 log2 (difference from the parental peptide).

As for chain 1 E2W, the enrichment was -1.39 log2 (difference from the parental peptide).

chain 1 E2N: the enrichment is -1.75 log2 (difference from the parental peptide).

chain 1 E2K: the enrichment is -2.67 log2 (difference from the parental peptide).

As to chain 1 E2L, the enrichment is -1.7 log2 (difference from the parental peptide).

Turning to chain 1 E2V, the enrichment was -1.43 log2 (difference from the parental peptide).

Turning to chain 1 E2H, the enrichment is -2.03 log2 (difference from the parental peptide).

Regarding chain 1 E1L, the enrichment was -1.2 log2 (difference from the parental peptide).

Regarding chain 1 E1G, the enrichment was -0.383 log2 (difference from the parental peptide).

With chain 1 E1D, the enrichment is 1.88 log2 (difference from the parental peptide).

As for chain 1 E1P, the enrichment was -0.418 log2 (difference from the parental peptide).

Consider chain 1 E1C, for which the enrichment was -8.27 log2 (difference from the parental peptide).

As for chain 1 E1V, the enrichment was -0.973 log2 (difference from the parental peptide).

chain 1 E1Y: the enrichment was -0.879 log2 (difference from the parental peptide).

chain 1 E1K: the enrichment was -2.59 log2 (difference from the parental peptide).

On to chain 1 E1T, for which the enrichment is -1.11 log2 (difference from the parental peptide).

For chain 1 E1N, the enrichment was -0.349 log2 (difference from the parental peptide).

Regarding chain 1 E1F, the enrichment was -2.08 log2 (difference from the parental peptide).

Regarding chain 1 C13T, the enrichment is -0.813 log2 (difference from the parental peptide).

Regarding chain 1 C13E, the enrichment was -4.45 log2 (difference from the parental peptide).

On to chain 1 C13S, for which the enrichment was -1.77 log2 (difference from the parental peptide).

Regarding chain 1 C13Y, the enrichment is -0.338 log2 (difference from the parental peptide).

Take chain 1 C13Q: the enrichment is -1.97 log2 (difference from the parental peptide).

With chain 1 C13V, the enrichment was 0.0797 log2 (difference from the parental peptide).

In the case of chain 1 C13M, the enrichment was -0.513 log2 (difference from the parental peptide).

Take chain 1 C13G: the enrichment is -1.56 log2 (difference from the parental peptide).

For the variant chain 1 C13D, the enrichment is -4.59 log2 (difference from the parental peptide).

As for chain 1 C13R, the enrichment is -3.1 log2 (difference from the parental peptide).

As for chain 1 C13I, the enrichment is -0.427 log2 (difference from the parental peptide).

For the variant chain 1 P10A, the enrichment was -8.23 log2 (difference from the parental peptide).

As to chain 1 P10S, the enrichment is -8.71 log2 (difference from the parental peptide).

As to chain 1 P10Q, the enrichment was -5.91 log2 (difference from the parental peptide).

On to chain 1 P10G, for which the enrichment is -9.74 log2 (difference from the parental peptide).

Take chain 1 P10W: the enrichment was -8.37 log2 (difference from the parental peptide).

Take chain 1 P10Y: the enrichment was -6.5 log2 (difference from the parental peptide).

For the variant chain 1 A7T, the enrichment is 0.325 log2 (difference from the parental peptide).

Consider chain 1 A7Y, for which the enrichment was -0.0899 log2 (difference from the parental peptide).

With chain 1 A7V, the enrichment was -0.376 log2 (difference from the parental peptide).

Take chain 1 A7P: the enrichment is 0.181 log2 (difference from the parental peptide).

On to chain 1 A7Q, for which the enrichment is 0.712 log2 (difference from the parental peptide).

As for chain 1 A7C, the enrichment was -9.36 log2 (difference from the parental peptide).

chain 1 A7M: the enrichment is 1.51 log2 (difference from the parental peptide).

For the variant chain 1 D3K, the enrichment is -4.88 log2 (difference from the parental peptide).

Turning to chain 1 D3C, the enrichment was -7.83 log2 (difference from the parental peptide).

For chain 1 D3G, the enrichment is -2.58 log2 (difference from the parental peptide).

For the variant chain 1 D3N, the enrichment is -1.8 log2 (difference from the parental peptide).

Turning to chain 1 D3P, the enrichment is -2.64 log2 (difference from the parental peptide).

Consider chain 1 D3Y, for which the enrichment was -2.62 log2 (difference from the parental peptide).

As for chain 1 D3L, the enrichment was -2.94 log2 (difference from the parental peptide).

For chain 1 D3H, the enrichment was -2.58 log2 (difference from the parental peptide).

Consider chain 1 D3Q, for which the enrichment was -2.92 log2 (difference from the parental peptide).

Consider chain 1 D3A, for which the enrichment is -1.64 log2 (difference from the parental peptide).

Regarding chain 1 D3I, the enrichment was -3.47 log2 (difference from the parental peptide).

As for chain 1 D3M, the enrichment is -3.45 log2 (difference from the parental peptide).

For chain 1 D3S, the enrichment is -2.23 log2 (difference from the parental peptide).

For chain 1 D3R, the enrichment was -4.97 log2 (difference from the parental peptide).

Turning to chain 1 D3T, the enrichment was -3.23 log2 (difference from the parental peptide).

For the origin of these results see article PMC11969024 (2025).
